Tests used:
[1] = target: lipidated recombinant human tissue factor (TF) (UniProt P13726); assay: cell-based or functional assay
Target sequence in this assay (P13726 33-295 limits assumed): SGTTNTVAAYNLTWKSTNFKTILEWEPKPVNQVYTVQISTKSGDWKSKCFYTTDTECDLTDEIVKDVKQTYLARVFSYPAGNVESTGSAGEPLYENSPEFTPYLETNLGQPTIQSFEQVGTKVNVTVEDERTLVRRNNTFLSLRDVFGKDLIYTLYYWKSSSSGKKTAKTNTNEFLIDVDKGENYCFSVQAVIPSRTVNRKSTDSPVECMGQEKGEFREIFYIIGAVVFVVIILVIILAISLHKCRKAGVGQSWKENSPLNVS

[2] = target: lipidated recombinant human tissue factor (TF) (UniProt P13726)
Target sequence in this assay (P13726 33-295): as the sequence (P13726 33-295 limits assumed) above

[3] = target: lipidated recombinant human tissue factor (TF) (human, UniProt P13726 33-295, limits assumed); assay: cell-based or functional assay

## enzymatically inactive heparanase (double mutant), mutated at Glu225 and Glu343 (from UniProt Q9Y251 36-543) (enzyme)
[1]
  factor Xa generation with conditioned medium of HEK-293 cells (chromogenic substrate; TF, factor VIIa, factor X): 2 fold

## full-length human heparanase (65 kDa) (from UniProt Q9Y251 36-543) (enzyme)
[1]
  factor Xa generation with conditioned medium of HEK-293 cells (chromogenic substrate; TF, factor VIIa, factor X): 2 fold

## recombinant active heparanase GS3 (single chain GS3 active heparanase gene construct comprising the 8 and 50 kDa heparanase subunits)
[2]
  factor Xa level (chromogenic substrate; purified TF, factor VIIa, factor X): Addition of heparanase induced 2 folds increase in Xa level
  thrombin generation (chromogenic substrate; TF, factor VIIa, factor X, prothrombin): Note a 3-fold increase in coagulation activity in the presence of heparanase.

B1: recombinant active heparanase GS3 (single chain GS3 active heparanase gene construct comprising the 8 and 50 kDa heparanase subunits) (enzyme)
chain: QDVVDLDFFTQEPLHLVSPSFLSVTIDANLATDPRFLILLGSPKLRTLARGLSPAYLRFGGTKTDFLIFDPKKESTFEERSYWQSQVNQDICKYGSIPPDVEEKLRLEWPYQEQLLLREHYQKKFKNSTYSRSSVDVLYTFANCSGLDLIFGLNALLRTADLQWNSSNAQLLLDYCSSKGYNISWELGNEPNSFLKKADIFINGSQLGEDFIQLHKLLRKSTFKNAKLYGPDVGQPRRKTAKMLKSFLKAGGEVIDSVTWHHYYLNGRTATKEDFLNPDVLDIFISSVQKVFQVVESTRPGKKVWLGETSSAYGGGAPLLSDTFAAGFMWLDKLGLSARMGIEVVMRQVFFGAGNYHLVDENFDPLPDYWLSLLFKKLVGTKVLMASVQGSKRRKLRVYLHCTNTDNPRYKEGDLTLYAINLHNVTKYLRLPYPFSNKQVDKYLLRPLGPHGLLSKSVQLNGLTLKMVDDQTLPPLMEKPLRPGSSLGLPAFSYSFFVIRNAKVAACI
[3]
  factor Xa generation at reduced TF levels (absorbance at 405 nm): 3 fold
  factor Xa generation with conditioned medium of HEK-293 cells (chromogenic substrate; TF, factor VIIa, factor X): 2 fold
